Measured values published in the nanobody polyreactivity screen of Harvey et al. (2022).

Assay: yeast display, Sf9 membrane polyspecificity reagent, FACS + sequencing; frameworks hold sequencing errors
How it was run: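 Galactose-induced (36–48 hours) yeast carrying a synthetic nanobody display library were exposed to 10% biotinylated, detergent-solubilized Sf9 membrane reagent at 4 °C for 1 hour. FACS followed streptavidin microbead enrichment, using low and high (top ~1%) gates for expression (anti-HA) and reagent binding (streptavidin). Colony PCR, MiSeq 2 × 250 sequencing and CDR-length filtering followed. Labels for polyreactivity reflect the gate of origin.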

Sequence | polyreactivity (PSR sort gate)
QVQLVESGGGLVQAGGSLRLSCAASGFTFYWYDMGWDRQAPGKEREFVAAIVQSGGSTYYADSVKGRFSISRDNAKITVYLQMKSLKPEDTAVYYGAARYILWDGDSWTEFDYWGQGTQVTVSS | low polyreactivity
QVQLVESGGGLVQAGGSLRLSCAPSGLIFYGYAMGWYRQAPGKERELVAAISCSGGRTYYADSVKGRFTISRDNAKNTVYLQMNSLKPEDTAVYYCNVRNRYRPYLPFWPDDYWGQGTQVTVSS | high polyreactivity
QVQLVESGGGLVQAGGSLRLSCAASGRIFSTYTMGWYRQAPGKERELVAAIRANGGSTYYADSVKGRFTISRDNAKNTVYLQMNSLKPEVTAVYYCNARRPIGTGYYWGQGTQVTVSS | high polyreactivity
QVQLVESVGGLVQAGGSLRLSCAASGSTFYFNDMGWYRQAPGKERELVAAISRGGSTYYADSVKGRFTISRDTAKNTVYLQMNSLKPEDTAVYYCANGSYVRNYGYWGQGTQVTVSS | high polyreactivity
QDQHVESGGCLVQAGGSRRLSCAASGSILGAYTMGCYRQAQGKERELVAAITRRGGSTYYADSVKGRFTISRDNAKNTVYLQMNSLKPEDTAVYYWNAEYGVWYDYLVVPYDYWGQGTQVTVSS | low polyreactivity
QVQLVESGGGLVQAGGSIRLSCAASGITFTLYAMGWYRQAPGKEMELVAAITISAGSTYYADSVKGRFTISRDNAKNTVYLQINSLKPEDTAVYYCAAESYGSWYYYWGQGTQVTVSS | high polyreactivity
QVQLVESGGGLDQAGGSLRLSCAASGFTFRRYAMGWYSQAPGKEREFVAAITTRGSNTYYADSVKGRFTISRDNAKNTVYLQMNSLKPEDTAVYYCAASYYPPGHYDYWGQGTQVTVSS | high polyreactivity
QVQLVESGGGLVQAGGSLRLSCAASGSIFPFNAMGWYRPAPGKERELVAAITSGGSTNYADSVKGRFTISRDNAKNTVYLQMNSLKPEDTADYYCAADWRYWRWAFDYWGQGTQVTVSS | high polyreactivity
QVQLVESGGGLVQAGGSLRLICAASGIIFSSNAMGWSRQAPGKERELVAAISNTGRTNYADSVKGRFTISRDNAKNTVYLQLNSLKPEDTAVYYCAARLSRRYYSYYYWGQGTQVTVSS | high polyreactivity
QVQLVESGGGLVQAGGSLRLSSAASGRIFYRNAMGWYRQAPGKERELVASITSGGRTNYADSVKGRFTFSRDNAKNTVYLHMNSLKPEDTAVYYCAAPPPYSVRTFRFYYWGQGTQVTVSA | high polyreactivity
QVQLVESGGGLVQAGGSLRLSCAASGFTFGYYAMGWYRQAPGKERELVAAINWSGVNTNYADSVKGRFTISRDNAKNTVYLQMNSLKPEDTAVYYCAADAGYDGYGYWGQGTQVTVSS | low polyreactivity
QVQLVESGAGLVQAGGSLRLSCAASGNTFYQYAMGWYRQAPGKERELVAAIDWSGGSTYADSVKGRFTISRDNAKNTVYLQMNSLKPEDTAVYYCEKYTYDYWGQGTQVTVSS | low polyreactivity
QDQLVESGGGLVQAGGSLRLSCAASGRTFTVYAMGWYRPAPGKEREMVAAISRSGGRTYYADSVKGRFTISRDNAMNTVYLQRNSLKPEDTAVYYCAADVPYRTNDFDYWGQGTQVTVSS | high polyreactivity
QVQLVESGGGLVQAGGSLRLSCAASGSIFWDYAMGRYRQAPGKERELVASITSGGSTYYADSVKGRFTISRDNAKNTVYLQMNSLKPEDTAVYYCAADGHTRHWGQTGRGAMYYWGQGTQVTVSS | low polyreactivity
QVQLVESVGGLDQAGGSLRLSCAASVFTFNIYVMGWYRQAPGKERELVAAISTSTGSTYYADSVKGRFTISRDNAKNTVYLQMNSLKPQDTAVYYCNADDYDLRFDYWGQGTQVTVSS | low polyreactivity
QVQLVESGGGLVQAGGSLRLSCAASGSILYYYAMGWYRQAPGKERELVAAISSGGSTYYADSVKGRFTISRDNAKNTVYLQMNSLKPEDTAVYYCAARRDNPWAKAPRYKMYYWGQGTQVTVSS | high polyreactivity

Sequence | polyreactivity (PSR sort gate)
QVQLVESGGGLVQAGGSLRLSCAASGRTFKSNAMGWYRQAPGKERELVATINYSATSTYYADSVKGSFTISRDNAKNTVYLQMNSLKPEDTAVYYCNVACGYSYRGLDYWGQVTQVTVSS | high polyreactivity
QVQLVESGGGLVQAGGSLSLSCAATGRTFVKNAMGWYRQAPGKERELVASISRSGGSTYYADSVKGRFTISRDTAKNTVYLQMNSLKTEDTAVYYCNAAVYGGYSRSRYGYWGQGTQVTVSS | high polyreactivity
QVQLVESGGGLVQSGGSLRLSCAASGFTFRFYAMGWYSQAPGKEREMVAAITSSGGSTFYADSVKGRFTISRDNAKNTVYLQMNSLKPEDTAVYYCAASVGREVGWGQGTQVTVSS | high polyreactivity
QVQLVESGGGLVQAGGSLRLSCAASGSTFGTNDMGWYRQAPGKEREFVASIDWSGDSTNYADSVKGRFTISRDNAKNTVYLQMNSLKPEDTAVYYCAARVFPPSRHDYWGQGTQVTVSS | high polyreactivity
QVQLVESGGGLVQAGGSLRLSCAASGSTFYPNAMGWYRQAPGKERELVAVITRSGGSTYYADSVKGRFTISRDNAKNTVYLQMNSLKPEDTAVYYCNAAYRTAYYGPRYDYWGQGTQVTVSS | high polyreactivity
QVQLVESGGGLVQAGGSLRVSCAASGIIFRYNAMGWSRQAPGKESELVAAITSGGITKYADSVKGRFTISRDNAKNTVYLQMNSLKPEDTAVYYCNAEYGFDRAGSRGEYWGQCTQVTVSS | low polyreactivity
QVQHAESGGGLDQAGGSLRLSCAASGGNFQANAMGWSRQATGKEREFVATITRGGGSTYYADSVKGRFTISRDNAKNTVYLQMNSLKPEDTAVYYCNSKPSYYQRYNYWGQGTQVTVSS | high polyreactivity
QVQLVESGGGLVQAGGSLRLSCVPPDMGWYRQAPGKERELVAAISRGGITNYADSVKRRFTISRDNAKNTVYLQMNSLKPEDTAVYYCAAEYTYYSYGGNYDYWGQGTQVTVSS | low polyreactivity
QVQLVESGGGIVQAGGSLRLSCAASGTFVYYAMVMYRQPPGKERELVAGISDGSSTNYADSVKGRFTISRDNAKNTVYLQMNSLKPEDTAVYYCAKRYYSSGREHGYWGQGTQVTVSS | low polyreactivity
QVQLVESGGGLVQAGGSLRLSCAASGSIFGYVMGWSRQAPGKERELVAAISSGGSTDYADSVKGRFTISRDNAKNTVYLQMNSLKPEDTAVYYCAADTDNGYTYYYWGQGTQVTVSS | low polyreactivity
QVQLVESGGCLVQAGGSLRLSCAASGSIFLFYAMGWYRHPPGKERELVAVIDTRASTTYYADSVKGRFTISRDNAKNTVYLQMNSLKPEDTAVYYCAAELQFTLYYSRPLLYQYYYWGQGTQVTVSS | high polyreactivity
QVQLVESGAGLVQAGGSLRLSCAASGFTFDQYAMGWYRPATGKERELVAGISWGGGTTYYADSVKGRFTISRDNAKNTVYLHMNSLKPEDTAVYYCAAVRPGYPYYGSDYWGPGTQVTVSS | low polyreactivity
QVQLVESGGGLVQAGGSLRLSCAASGRTLLPNALGWYRQAPGKERELVASIRDGGDTNYADSVKGRFTISRDNAKKTVYLQMNSLQPEDTGVYYCNADWWAYYSFGHEYWGLGTQVTVSS | low polyreactivity
QVQLVESGGGLVHAGGSLRLSCAASGSIFTKYVMGWYRQAPGKERELVAAITYSGGNTYYADSVKGRFTISRDNAKNTVYFQMNSLKPEDTAVYYCAAKSSAHRGGYWGQGTQVTVSS | high polyreactivity
QVQLVESGGGLVQAGGSLRLSCAASGFILRYYAMGWYRQAPGKERELVAAISSGGGTYYADSVKGRFTISRDNAKNTVYLQMNSLKPEDTAVYYCAAVYWGLWHWLYTDDDGDYWGQGTQVTVSS | high polyreactivity
QVQLVESGGGLVQAGGSLRLSCAASGRIFDNYGMGWYRQAPGKERELVAAISSGGGRYYADSVTGRFTISRDNAKNTVYFQMHSLKPEDTAVYYCAKDPKYHLSGGYDYWGQGTQVTVSS | low polyreactivity
